Measurements taken from article PMC9276669, “Purification, characterization, and preliminary serial crystallography diffraction advances structure determination of full-length human particulate guanylyl cyclase A receptor” (Scientific Reports, 2022).
Several values for one entry are separate records, joined by “and”; a condition that tells them apart may be missing. Equal values may be shown once.

Molecular target: the molecule itself
Assay: SEC; Superose 6 Increase 10/300 GL, 50 mM HEPES-NaOH pH 7.5, 150 mM NaCl, 5 mM DTT, 10% glycerol, 0.05% DDM, 0.01% CHS, 4 °C; more concentrated injected sample (about 300 uL); sizes by comparison with five standard proteins; monomer to tetramer

B1: full-length human particulate guanylyl cyclase A receptor (pGC-A) (receptor, UniProt P16066 33-1061, looked up)
chain: GNLTVAVVLPLANTSYPWSWARVGPAVELALAQVKARPDLLPGWTVRTVLGSSENALGVCSDTAAPLAAVDLKWEHNPAVFLGPGCVYAAAPVGRFTAHWRVPLLTAGAPALGFGVKDEYALTTRAGPSYAKLGDFVAALHRRLGWERQALMLYAYRPGDEEHCFFLVEGLFMRVRDRLNITVDHLEFAEDDLSHYTRLLRTMPRKGRVIYICSSPDAFRTLMLLALEAGLCGEDYVFFHLDIFGQSLQGGQGPAPRRPWERGDGQDVSARQAFQAAKIITYKDPDNPEYLEFLKQLKHLAYEQFNFTMEDGLVNTIPASFHDGLLLYIQAVTETLAHGGTVTDGENITQRMWNRSFQGVTGYLKIDSSGDRETDFSLWDMDPENGAFRVVLNYNGTSQELVAVSGRKLNWPLGYPPPDIPKCGFDNEDPACNQDHLSTLEVLALVGSLSLLGILIVSFFIYRKMQLEKELASELWRVRWEDVEPSSLERHLRSAGSRLTLSGRGSNYGSLLTTEGQFQVFAKTAYYKGNLVAVKRVNRKRIELTRKVLFELKHMRDVQNEHLTRFVGACTDPPNICILTEYCPRGSLQDILENESITLDWMFRYSLTNDIVKGMLFLHNGAICSHGNLKSSNCVVDGRFVLKITDYGLESFRDLDPEQGHTVYAKKLWTAPELLRMASPPVRGSQAGDVYSFGIILQEIALRSGVFHVEGLDLSPKEIIERVTRGEQPPFRPSLALQSHLEELGLLMQRCWAEDPQERPPFQQIRLTLRKFNRENSSNILDNLLSRMEQYANNLEELVEERTQAYLEEKRKAEALLYQILPHSVAEQLKRGETVQAEAFDSVTIYFSDIVGFTALSAESTPMQVVTLLNDLYTCFDAVIDNFDVYKVETIGDAYMVVSGLPVRNGRLHACEVARMALALLDAVRSFRIRHRPQEQLRLRIGIHTGPVCAGVVGLKMPRYCLFGDTVNTASRMESNGEALKIHLSSETKAVLEEFGGFELELRGDVEMKGKGKVRTYWLLGERGSSTRG
notes: transmembrane domain at residues 474-495; no TEV cleavage step is described; Found as monomer and as tetramer, depending on protein concentration; also called Particulate Guanylyl Cyclase Receptor A; natriuretic peptide receptor A; source: also on whole transfected Sf9 cells
stoichiometry N: 4 and 2
